{
  "source": "FireProtDB (doi:10.1021/bi00150a028)",
  "parents": {"B1": {"name": "Lysozyme C, P61626 (parent)", "chain": "MKALIVLGLVLLSVTVQGKVFERCELARTLKRLGMDGYRGISLANWMCLAKWESGYNTRATNYNAGDRSTDYGIFQINSRYWCNDGKTPGAVNACHLSCSALLQDNIADAVACAKRVVRDPQGIRAWVAWRNRCQNRDVRQYVQGCGV"}},
  "variants_of": "B1",
  "conditions": "Homo sapiens, pH 3, Thermal, DSC, glycine-HCl 0.05 M, reversible: yes, structure 1LZ1, whole UniProt chain shown; for ddG of mutation (higher = less stable) / unfolding enthalpy (calorimetric) / unfolding free energy: 57 °C",
  "data": [
    {"variant": "MKALIVLGLVLLSVTVQGKVFERCELARTLKRLGMDGYRGISLANWMCLAKWESGYNTRATNYNAGDRSTDYGIFQINSRYWCNDGKTPGAVNAAHLSCSALLQDNIADAVACAKRVVRDPQGIRAWVAWRNRCQNRDVRQYVQGCGV", "note": "[C95A]", "values": [
      {"measurement": "ddG of mutation (higher = less stable)", "result": 4.6, "unit": "kcal/mol"},
      {"measurement": "unfolding enthalpy (calorimetric)", "result": 94.8, "unit": "kcal/mol"},
      {"measurement": "unfolding free energy", "result": 0, "unit": "kcal/mol"}
    ]},
    {"variant": "MKALIVLGLVLLSVTVQGKVFERCELARTLKRLGMDGYRGISLANWMCLAKWESGYNTRATNYNAGDRSTDYGIFQINSRYWCNDGKTPGAVNAAHLSCSALLQDNIADAVAAAKRVVRDPQGIRAWVAWRNRCQNRDVRQYVQGCGV", "note": "[C95A C113A]", "values": [
      {"measurement": "ddG of mutation (higher = less stable)", "result": 4.6, "unit": "kcal/mol"},
      {"measurement": "unfolding enthalpy (calorimetric)", "result": 90.8, "unit": "kcal/mol"},
      {"measurement": "unfolding free energy", "result": 0, "unit": "kcal/mol"},
      {"measurement": "Tm", "result": 56.9, "unit": "°C"},
      {"measurement": "change of melting temperature, mutant - wild type (higher = more stable)", "result": -14.5, "unit": "°C"}
    ]}
  ]
}
